T1: IgA-Pep13
T1 sequence (peptide, Tn (GalNAc, marked *) on S3 and T7): KPSTPPTPSPSC

T2: IgA-Pep11
T2 sequence (peptide, Tn (GalNAc, marked *) on S3, S5 and T9): KPSPSTPPTPSC

T3: B-MUC2
T3 sequence (peptide, N-terminal acetyl; Tn (GalNAc, marked *) on T3; C-terminal amide): PTTTPLK

T4: D-MUC2
T4 sequence (peptide, N-terminal acetyl; Tn (GalNAc, marked *) on T2 and T3; C-terminal amide): PTTTPLK


How the values were obtained:
Assay in all cases: glycopeptide microarray, antibody at 50 ug/mL
IgA-Pep13 = molecular target: T1, IgA-Pep13
Tn3 linker = molecular target: Tn3 linker
PADRE Tn3b = molecular target: PADRE Tn3b
IgA-Pep11 = molecular target: T2, IgA-Pep11
B-MUC2 = molecular target: T3, B-MUC2
D-MUC2 = molecular target: T4, D-MUC2

RLU (IgA-Pep13) [RLU] | RLU (Tn3 linker) [RLU] | RLU (PADRE Tn3b) [RLU] | RLU (IgA-Pep11) [RLU] | RLU (B-MUC2) [RLU] | RLU (D-MUC2) [RLU] | Binder
253 | 21 | -84 | 311 |  |  | 2F3 variant #6 (antibody, IgG1, V domains shown) VH: QVQLLESGGGLVQPGGSLRLSCAASGFTFDSYAMSWVRQAPGKGLEWVSAISGSGASTYYADSVKGRFSISRDNSKNTLYLQMNSLRAEDTAVYYCAIRREYSGYAPFDYWGQGTLVIVSS VL: DIVMTQTPSSLSASVGDRVTITCRASQGISSWLAWYQQKPEKAPRSLIYAASSLQSGVPSRFSGSGSGTDFTLTISSLQPEDFATYYCQQYISYPYTFGQGTKLEIK
 | 24 | 49 |  | 237 | 179 | 2F3 variant #17v2 (antibody, IgG1, V domains shown) VH: QITLRESGGGLVQPGGSLRLSCAASGFTFDSYAMSWVRQAPGKGLEWVSAISGSGHSTYYADSVKGRFSISRDNSKNTLYLQMNNLRAEDTAVYYCAIRREYSGYAPFDYWGQGTLVTVSS VL: DIVMTQTPSSLSASVGDRVTITCRASQGISSWLAWYQQKPEKAPRSLIYAASSLQSGVPSRFSGSGSGTDFTLTISSLQPEDFATYYCQQYISYPYTFGQGTKLEIK
 | 8 | 13 |  |  |  | 2F3 parent antibody (antibody, V domains shown) VH: QITLRESGGGLVQPGGSLRLSCAASGFTFDSYAMSWVRQAPGKGLEWVSAISGSGDSTYYADSVKGRFSISRDNSKNTLYLQMNSLRAEDTAVYYCAIRREYSGYAPFDYWGQGTLVTVSS VL: DIVMTQTPSSLSASVGDRVTITCRASQGISSWLAWYQQKPEKAPRSLIYAASSLQSGVPSRFSGSGSGTDFTLTISSLQPEDFATYYCQQYISYPYTFGQGTKLEIK

— US20190111164A1
